According to US20230183713A1, “SITE-SPECIFIC RECOMBINASES FOR EFFICIENT AND SPECIFIC GENOME EDITING” (TECHNISCHE UNIVERSITÄt DRESDEN, published 2023):
Changes are numbered by the printed parent chain. Numbers in names are those of the source.

T1: Cre recombinase monomer with E176I mutation
T1 chain: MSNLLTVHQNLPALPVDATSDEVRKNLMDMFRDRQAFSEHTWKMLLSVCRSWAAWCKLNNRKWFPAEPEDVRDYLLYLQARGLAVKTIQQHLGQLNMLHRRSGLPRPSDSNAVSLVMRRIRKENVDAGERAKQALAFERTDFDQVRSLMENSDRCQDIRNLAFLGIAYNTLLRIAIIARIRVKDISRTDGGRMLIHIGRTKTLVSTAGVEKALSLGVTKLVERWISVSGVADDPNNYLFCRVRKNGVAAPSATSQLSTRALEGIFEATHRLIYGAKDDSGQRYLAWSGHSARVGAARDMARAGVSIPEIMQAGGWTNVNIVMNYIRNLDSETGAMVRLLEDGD

T2: Cre recombinase monomer with E176M mutation
T2 chain: T1 chain with I176M

T3: Cre recombinase monomer with E176V mutation
T3 chain: T1 chain with I176V

T4: Cre recombinase monomer with E176W mutation
T4 chain: T1 chain with I176W

T5: Cre recombinase monomer with E176Y mutation
T5 chain: T1 chain with I176Y

T6: Cre recombinase monomer with K201Q mutation
T6 chain: T1 chain with I176E, K201Q

T7: Cre recombinase monomer with Q311R mutation
T7 chain: T1 chain with I176E, Q311R

T8: Cre recombinase monomer with K201Y mutation
T8 chain: T1 chain with I176E, K201Y

T9: Cre recombinase monomer with Y324T mutation
T9 chain: T1 chain with I176E, Y324T

T10: Cre recombinase monomer with E176H mutation
T10 chain: T1 chain with I176H

T11: Cre recombinase monomer with K201F mutation
T11 chain: T1 chain with I176E, K201F

T12: Cre recombinase monomer with W315M mutation
T12 chain: T1 chain with I176E, W315M

T13: Cre recombinase monomer with Y324N mutation
T13 chain: T1 chain with I176E, Y324N

B1: Cre recombinase monomer with R173F mutation (protein)
chain: T1 chain with R173F, I176E
B2: Cre recombinase monomer with R173G mutation (protein)
chain: T1 chain with R173G, I176E
B3: Cre recombinase monomer with R173L mutation (protein)
chain: T1 chain with R173L, I176E

Columns and labels:
[1] = target: T1, Cre recombinase monomer with E176I …
[2] = target: T2, Cre recombinase monomer with E176M …
[3] = target: T3, Cre recombinase monomer with E176V …
[4] = target: T4, Cre recombinase monomer with E176W …
[5] = target: T5, Cre recombinase monomer with E176Y …
[6] = target: T6, Cre recombinase monomer with K201Q …
[7] = target: T7, Cre recombinase monomer with Q311R …
[8] = target: T8, Cre recombinase monomer with K201Y …
[9] = target: T9, Cre recombinase monomer with Y324T …
[10] = target: T10, Cre recombinase monomer with E176H …
[11] = target: T11, Cre recombinase monomer with K201F …
[12] = target: T12, Cre recombinase monomer with W315M …
[13] = target: T13, Cre recombinase monomer with Y324N …

Protein | Median dimer activity (recombination on loxP) [1] | Median dimer activity (recombination on loxP) [2] | Median dimer activity (recombination on loxP) [3] | Median dimer activity (recombination on loxP) [4] | Median dimer activity (recombination on loxP) [5] | Median dimer activity (recombination on loxP) [6] | Median dimer activity (recombination on loxP) [7] | Median dimer activity (recombination on loxP) [8] | Median dimer activity (recombination on loxP) [9] | Median dimer activity (recombination on loxP) [10] | Median dimer activity (recombination on loxP) [11] | Median dimer activity (recombination on loxP) [12] | Median dimer activity (recombination on loxP) [13]
B1 | 25% | 38% | 82% | 30% | 40% | 39% | 84% |  |  |  |  |  | 
B2 |  |  |  |  |  |  | 95% | 95% | 32% |  |  |  | 
B3 |  |  |  |  |  |  | 94% |  |  | 66% | 41% | 63% | 88%
